Assay [1] has as its target T1, hDEP1 Peptide #4 (human, also: conjugated to BSA).
T1 construct: also called hDEP1 Peptide #4/BSA
T1 peptide: ADVLKYTYEDFKKGASDT
The experiment in a line: ELISA, soluble scFv produced in microtiter plate. The protocol: 96 isolated clones from the second, third and fourth rounds of panning were hand-picked and used to produce the respective soluble scFv in microtiter plate. Each clone was then tested in ELISA against hDEP1 Peptide #4/BSA.

Assay [2] deals with T2, hDEP1 Peptide #2 (human, also: conjugated to BSA).
T2 peptide: PVLGDIEGTPGFLQVHT
In words: indirect ELISA, purified soluble scFv.

Assay [3] concerns the target T3, hDEP1-ECD-His (human, UniProt Q12913 621-969).
T3 construct: Produced in CHO cells, purified on Ni-NTA; also called recombinant protein hDEP1-ECD-His
T3 sequence: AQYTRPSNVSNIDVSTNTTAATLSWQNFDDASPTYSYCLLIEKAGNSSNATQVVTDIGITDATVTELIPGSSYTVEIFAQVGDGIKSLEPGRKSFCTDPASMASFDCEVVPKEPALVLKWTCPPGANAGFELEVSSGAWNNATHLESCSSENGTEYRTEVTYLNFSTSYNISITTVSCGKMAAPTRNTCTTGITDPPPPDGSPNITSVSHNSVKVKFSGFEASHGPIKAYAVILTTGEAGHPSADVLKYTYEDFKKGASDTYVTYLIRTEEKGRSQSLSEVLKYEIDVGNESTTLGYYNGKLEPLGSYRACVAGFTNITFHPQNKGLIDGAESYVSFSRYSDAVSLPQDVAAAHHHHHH
In words: indirect ELISA, purified soluble scFv.

In assay [4] the target is T4, murine counterpart of hDEP1-ECD-His (murine, UniProt Q64455 524-870).
T4 construct: also called mDEP1
T4 sequence: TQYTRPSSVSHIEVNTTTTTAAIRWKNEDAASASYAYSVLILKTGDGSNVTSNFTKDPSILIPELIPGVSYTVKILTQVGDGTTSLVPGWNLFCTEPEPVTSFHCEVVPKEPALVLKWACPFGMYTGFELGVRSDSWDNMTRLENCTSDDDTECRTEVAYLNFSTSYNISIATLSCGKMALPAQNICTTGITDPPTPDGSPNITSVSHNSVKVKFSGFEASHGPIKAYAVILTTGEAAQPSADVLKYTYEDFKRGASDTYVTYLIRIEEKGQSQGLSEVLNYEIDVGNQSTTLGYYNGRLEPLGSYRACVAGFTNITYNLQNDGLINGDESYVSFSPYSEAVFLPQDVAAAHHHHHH
In words: indirect ELISA, purified soluble scFv.

The target of assay [5] is T5, hDEP1 Peptide #1 (human, also: conjugated to BSA).
T5 peptide: AGGTPSPIPDPSV
The experiment in a line: indirect ELISA, purified soluble scFv.

For assay [6], the target named is T6, BSA (UniProt P02769 25-607).
T6 construct: Negative control antigen in the ELISAs; also called negative control (BSA only)
T6 sequence (P02769 25-607 limits assumed): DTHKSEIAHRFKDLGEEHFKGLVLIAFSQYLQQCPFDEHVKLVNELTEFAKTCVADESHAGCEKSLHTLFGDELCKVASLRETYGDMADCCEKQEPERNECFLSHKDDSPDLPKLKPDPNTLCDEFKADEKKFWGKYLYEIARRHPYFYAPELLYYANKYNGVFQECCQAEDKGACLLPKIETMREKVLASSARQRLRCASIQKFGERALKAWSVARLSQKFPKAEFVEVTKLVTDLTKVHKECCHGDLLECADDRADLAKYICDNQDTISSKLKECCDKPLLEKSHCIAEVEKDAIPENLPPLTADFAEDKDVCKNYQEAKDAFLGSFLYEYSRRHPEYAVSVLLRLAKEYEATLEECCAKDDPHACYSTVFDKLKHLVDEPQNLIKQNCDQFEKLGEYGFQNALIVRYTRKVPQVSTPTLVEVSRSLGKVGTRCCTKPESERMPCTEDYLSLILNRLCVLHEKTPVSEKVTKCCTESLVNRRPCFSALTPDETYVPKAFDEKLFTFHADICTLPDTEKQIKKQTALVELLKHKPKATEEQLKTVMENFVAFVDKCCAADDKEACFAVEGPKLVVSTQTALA
The experiment in a line: indirect ELISA, purified soluble scFv.

Assay [7] concerns the target T7, hDEP1 Peptide #3 (human, also: conjugated to BSA).
T7 peptide: EVVPKEPALVLKWT
The experiment in a line: indirect ELISA, purified soluble scFv.

In assay [8] the target is T1, hDEP1 Peptide #4. In words: indirect ELISA, purified soluble scFv.

Ends that are not written are not given here.

B1: 5738-10-R4A-G12 (scFv, V domains shown)
VH: QVQLKESGAELAKPGSSVKISCKASGYTFTSDSISWIKQTTGQGLEYIGYIHPGSGVTNYNEKFKGKATLTVDKSSSTAFMQLSSLTPDDSAIYYCARYFDYWGQGVMVTVSS
VL: DILMTQSPSSMSVSLGDTVTITCRASQDVGIYVNWFQQKPGKSPRRMIYRATNLADGVPSRFSGSRSGSDYSLTISSLESEDVADYHCLQYDEYPPTFGGGTKLELK
notes: anti-hDEP1 scFv, rat 10 library, format VH/VL-6xHis-Flag
On to B1, for which the binding result in assay [1] is given as “binds”; in assay [2], “no binding”; in assay [3], “binds”; in assay [4] it was “no binding”; in assay [5], “no binding”; in assay [6] it was “no binding”. The binding result in assay [7] is reported as “no binding”.

B2: 5738-13-R4A-D11 (scFv, V domains shown)
VH: QVQLKESGGGLVQPGRSLKLSCAASGFSFGDYNMAWVRQAPKKGLEWVATISYDDYRTYYRDSVKGRFTISRDDAKATLYLQMDSLRSEDTATYYCARQGGIIRGVWFPYWGQGTLVTVSS
VL: DIQMTQTPASLSASLEEIVTITCQASQDIGNWLAWYQQKPGKSPHLLIYGATTLADGVPSRFSGSRSGTQYSLKISRLQAEDIGIYYCQQASSAPWTFGGGTKLELK
notes: anti-hDEP1 scFv, rat 13 library, format VH/VL-6xHis-Flag
Turning to B2, the binding result in assay [2], in assay [4], in assay [8], in assay [5], in assay [6] and in assay [7] was “no binding” in each case.
